From US20140363833

What was measured:
[1] = test system: T1, D-isomer of the MMP9 substrate PLGVRGK on nanoworms
T1 sequence: PLGVRGK

[2] = test system: T2, fluorophore-labeled thrombin substrate (fPR-x-S extended with glycine spacers and a C-terminal cysteine) on nanoworms
T2 sequence: GGFPRSGGGC

[3] = test system: T3, D-stereoisomer of the thrombin substrate PLGLRSW on nanoworms
T3 sequence: PLGLRSW

[4] = test system: T4, fluorescein-labeled thrombin-cleavable substrate PLGLRSW on nanoworms
T4 sequence: PLGLRSW

[5] = molecular target: T5, fluorophore-labeled thrombin substrate (fPR-x-S extended with glycine spacers and a C-terminal cysteine) on nanoworms (not fully specified)
T5 chain: GGFPRSGGGC

| Molecule | sample fluorescence (fluorogenic NW protease assay) [2] | further results |
| --- | --- | --- |
| recombinant MMP9 (R&D Systems) | – | sample fluorescence (fluorogenic NW protease assay) [1]: no activity when the broad-spectrum MMP inhibitor Marimastat or D-isomer substrates were used |
| FXa (Haematologic Technologies) | negligible proteolysis was observed from the panel of non-cognate proteases | – |
| FIXa (Haematologic Technologies) | negligible proteolysis was observed from the panel of non-cognate proteases | – |
| FXIa (Haematologic Technologies) | negligible proteolysis was observed from the panel of non-cognate proteases | – |
| activated protein C (Haematologic Technologies) | negligible proteolysis was observed from the panel of non-cognate proteases | – |
| recombinant thrombin (Haematologic Technologies) | – | sample fluorescence (fluorogenic NW protease assay) [3]: No increase in fluorescence was observed in the presence of Argatroban, a direct thrombin inhibitor, or when the substrate was synthesized with protease-resistant D-stereoisomers; sample fluorescence (fluorogenic NW protease assay) [4]: observed a rapid increase in sample fluorescence as cleaved peptide fragments released into solution fluoresced freely |
| FVIIa (Haematologic Technologies) (protein) ANAFLEELRPGSLERECKEEQCSFEEAREIFKDAERTKLFWISYSDGDQCASSPCQNGGSCKDQLQSYICFCLPAFEGRNCETHKDDQLICVNENGGCEQYCSDHTGTKRSCRCHEGYSLLADGVSCTPTVEYPCGKIPILEKRNASKPQGRIVGGKVCPKGECPWQVLLLVNGAQLCGGTLINTIWVVSAAHCFDKIKNWRNLIAVLGEHDLSEHDGDEQSRRVAQVIIPSTYVPGTTNHDIALLRLHQPVVLTDHVVPLCLPERTFSERTLAFVRFSLVSGWGQLLDRGATALELMVLNVPRLMTQDCLQQSRKVGDSPNITEYMFCAGYSDGSKDSCKGDSGGPHATHYRGTWYLTGIVSWGQGCATVGHFGVYTRVSQYIEWLQKLMRSEPRPGVLLRAPFP | – | sample fluorescence (fluorogenic NW protease assay) [5]: negligible proteolysis was observed from the panel of non-cognate proteases |
